Article PMC6748273

How the values were obtained:
Assay in all cases: purified protein
Conditions in all cases: 1.2 mM L-Trp, 25 mM Tris, 5 mM MgCl2, 50 mM KCl, pH 7.5, 35 °C
purified protein [1] = substrate: O=P(O)(O)OP(=O)(O)OCc1ccccc1
purified protein [2] = substrate: O=P(O)(O)OP(=O)(O)OCC=C1CCCC1
purified protein [3] = substrate: O=P(O)(O)OP(=O)(O)OCc1ccc(Br)cc1
purified protein [4] = substrate: CC(C)=CCOP(=O)(O)OP(=O)(O)O
purified protein [5] = substrate: COc1ccccc1COP(=O)(O)OP(=O)(O)O
purified protein [6] = substrate: O=P(O)(O)OP(=O)(O)OCc1ccc(Cl)cc1
purified protein [7] = substrate: CCC(=CCOP(=O)(O)OP(=O)(O)O)CC
purified protein [8] = substrate: C/C(Br)=C/COP(=O)(O)OP(=O)(O)O
purified protein [9] = substrate: CC=CCOP(=O)(O)OP(=O)(O)O
purified protein [10] = substrate: O=P(O)(O)OP(=O)(O)OCc1ccc(F)cc1
purified protein [11] = substrate: COc1cccc(COP(=O)(O)OP(=O)(O)O)c1

B1: FgaPT2 (Aspergillus fumigatus Af293) (protein)
chain: MKAANASSAEAYRVLSRAFRFDNEDQKLWWHSTAPMFAKMLETANYTTPCQYQYLITYKECVIPSLGCYPTNSAPRWLSILTRYGTPFELSLNCSNSIVRYTFEPINQHTGTDKDPFNTHAIWESLQHLLPLEKSIDLEWFRHFKHDLTLNSEESAFLAHNDRLVGGTIRTQNKLALDLKDGRFALKTYIYPALKAVVTGKTIHELVFGSVRRLAVREPRILPPLNMLEEYIRSRGSKSTASPRLVSCDLTSPAKSRIKIYLLEQMVSLEAMEDLWTLGGRRRDASTLEGLSLVRELWDLIQLSPGLKSYPAPYLPLGVIPDERLPLMANFTLHQNDPVPEPQVYFTTFGMNDMAVADALTTFFERRGWSEMARTYETTLKSYYPHADHDKLNYLHAYISFSYRDRTPYLSVYLQSFETGDWAVANLSESKVKCQDAACQPTSLPPDLSKTGVYYSGLH
kcat (purified protein [1]): 0.0227 ± 0.000333 s⁻¹
kcat/Km (purified protein [1]): 103 ± 5 M⁻¹ s⁻¹
kcat (purified protein [2]): 0.084 ± 0.003 s⁻¹
kcat/Km (purified protein [2]): 267 ± 33.3 M⁻¹ s⁻¹
kcat (purified protein [3]): 0.00223 ± 5e-05 s⁻¹
kcat/Km (purified protein [3]): 7 ± 0.667 M⁻¹ s⁻¹
kcat (purified protein [4]): 0.833 ± 0.0167 s⁻¹
kcat/Km (purified protein [4]): 5820 ± 467 M⁻¹ s⁻¹
kcat (purified protein [5]): 0.0322 ± 0.000833 s⁻¹
kcat/Km (purified protein [5]): 56.7 ± 3.33 M⁻¹ s⁻¹
kcat (purified protein [6]): 0.00327 ± 6.67e-05 s⁻¹
kcat/Km (purified protein [6]): 7.67 ± 0.5 M⁻¹ s⁻¹
kcat (purified protein [7]): 0.108 ± 0.00167 s⁻¹
kcat/Km (purified protein [7]): 283 ± 16.7 M⁻¹ s⁻¹
kcat (purified protein [8]): 0.00783 ± 0.000167 s⁻¹
kcat/Km (purified protein [8]): 21.7 ± 1.67 M⁻¹ s⁻¹
kcat (purified protein [9]): 0.0095 ± 0.000333 s⁻¹
kcat/Km (purified protein [9]): 65 ± 6.67 M⁻¹ s⁻¹
kcat (purified protein [10]): 0.0046 ± 6.67e-05 s⁻¹
kcat/Km (purified protein [10]): 11.5 ± 0.667 M⁻¹ s⁻¹
kcat (purified protein [11]): 0.00283 ± 8.33e-05 s⁻¹
kcat/Km (purified protein [11]): 3.83 ± 0.333 M⁻¹ s⁻¹
